Measurements from the DeepSol protein solubility set.

Assay: soluble on expression in E. coli; label from the status in PepcDB or PDB records

Sequence	soluble on expression in E. coli
MGSDKIHHHHHHVQVVSISSLKGGVGKTSVTTGLASAALAAGIPTLVVDLDPHADASTALGVQPDEQLDIGRMLKSPRRARLSQNVVTSGWVARENYNGARPAVLDVAVGSAYTGIYDRPDLGRRDLRRLSAVLAGTDKYQLILVDCPPSLNGLTRMAWSASDKVALVAEPGLFSVAGTERTMRAIQLFRQEFAPNLSPAGIIANRVRSGSSEHAFRLAEMQSMFGELLLTPYIPEQANWQQIQGAAHSVHHWPGDSAKNAASLFNTLLDNLMASNDAGSAGALRERSLR	not soluble
MGSDKIHHHHHHMIRIKTPSEIEKMKKAGKAVAVALREVRKVIVPGKTAWDVETLVLEIFKKLRVKPAFKGYGGYKYATCVSVNEEVVHGLPLKEKVFKEGDIVSVDVGAVYQGLYGDAAVTYIVGETDERGKELVRVTREVLEKAIKMIKPGIRLGDVSHCIQETVESVGFNVIRDYVGHGVGRELHEDPQIPNYGTPGTGVVLRKGMTLAIEPMVSEGDWRVVVKEDGWTAVTVDGSRCAHFEHTILITENGAEILTKEG	soluble
MGSDKIHHHHHHMKKLRKIIEINEELCNGCGQCISACAESALALVNGKARVVSDNLCDGLGTCIGECPTGALKIVEREAEEFDAQAVEIARSCPSTRMVMTFTAGTPSSEARPSALSHWPVKIRLIPENAPFLKGADLLVVADCVPVAFSDLHGRFLPGKVVMAGCPKFDEAQPYIEKFAGIFHNAGIRRVTVLTMEVPCCSGLPILVRKGMELAGVRVPMEVAVISTRGEILDKTA	not soluble
QLLGATVVEHNPLYTAHELEGLFQDHGARVAIAWDKAASTLEKLRDTTSLETIISVNMTEAMPRIQQLALRIPIPPIAAKREQLTAFADNTVPWSTLIGNAIGGNGKRTEFPKVTKDDIALILYTSGTTGTPKGALLSHGNLVSNCFMGKAWVPGLGDQPER	not soluble
MATSMTDIKGFNMISIEQEKELGNKFAVEIEKQQQPVNDPEVQRYVDKVGKRLLSGARAVEFDYVFKVVKDDSVNAFAIPGGRVYVHTGLLKAADNETELAGVLAHEINHAVARHGTRQMTQEYGYSLVLSLVLGDNPNMLAQLAGQLFGKAGMMSYSREYENQADFLGVETMYKAGYNPNGLTSFFQKLNAMDGGTQSNVARFFSTHPLTSERIQRVQAEIAKLPPQRYLTDETEFKKIKGRLKLEHHHHHH	soluble
MNPILTAAKQLLHKEEKILSTLKCSLTGYMITHKVPYPGMLLATNQRLLFFSQYKNTFIAEFDYEKILSIETKRRIFDKKIIFYYEDEYITLGYITSSNVEAFIDLLQRNSKTSTGL	not soluble
METKILYQKVSADLKRRILDGDYEVGGLIPSEGELERYYQVSKITIRKAVEVLVSEGYLEKKSGIGTRVISNDLFNKLTQTQSFTATVGQQGKLTKELIKIERVPAVPALLPSESQGTMLRIKRRYLLDGKPFAVVDHYLPNTLVPTKLTALRHRSLYKILQENGQTITHFQDKFSAVTLADSERALLESQTPLAIRRERKGYDGHQRLVEFSIATYQTDVVPYQINYDVL	not soluble
ETLPLMMFTANGGGYLTYANKWLKDYFGMLEIQSGKTEWTSLVNSSDTKQVRDEWEKAQTNQTHFRAQAKLKSKTAESALWHLISLVPVKNDLNQITSWTGFFVDI	not soluble
MNALLRFTLGLCSMTLLAGCGENIDHSKIRSSGFVYCGESAPTTFNPQLADNDITSDALGPQIYNTLLTIDPETHLPVASLASSWTVNSTGLEYVFKLRPDVAFQTTPWFSPTRPLNADDVVFSFRRIIDPTNPYHKVGQTQYPWFKGIDFQNLLVDVSALDDLTVKFVLSRPDNSFLSNIATSHAVILSLEYANQLIIDDEKEKLDNLPLGTGPFYLAEYHPRDLIRLKRHPQYWEGAAKVEQVVFDISQRGTGMLAKLLRNECDVLNAPISSQLPAIEKNPDIVLQTTPAMNVAFIAVNTQHPALNDNRVRKALNFAINRQNILDSVYYGTGSIAFTILPPTSWAYQQDTAQIRYDRNYAQALLREAGFATGLELTMSVPVEPKAYNPSPRKTAELIQANLADIGVTLRLISEDRSERQELSIRNNIDLYLSGWTGDTGDPDNFLRPLLSCDSNRAGLNVSMWCDSDFDFLLDLALEANKPRYRLNLYHQAQNILNQEFPVIPLAHGIQFTAYSKSLTGIRISPFNVQPFNTVERVAE	not soluble
MIPKAFDGVKLLQFSDLHLGHYDSLERFYRIINQINKLQPDIVVFTGDLLHEANRYPHTEEVADALASIRAPLGKFSVYGNHDHGGYGTDIYRRLMERAGFRVLVNEHALVRRGQERIAVAGGDDMMLGQPDWAKMTSGIPASTYTIALVHEPDGALETCRYPIHVQLSGHSHGGQIQLPFIGPLITPPLSERYYEGFYHVGGLVLYVNRGLGTTRVPLRFFAPPELTVFSLIHRLEHHHHHH	not soluble
MNLCRECYGIIGEGVVAEKCEACCNAFDRVEEFAEEIVKKMSEYEFETFNVGSRVWGSLKALQEYLSLKGIEYEIKQRFNTKLARAIEEKTGSKRTLNPDITVLFDLETFTFELQIRPVFIYGRYLKRVRNISQTRWLCGYCNGEGCEVCNFTGKKYVSSVEELIAMPAVRLFKARDAKLHGAGREDVDARMLGTGRPFVLEVIEPRKRFVDLKELEEAINSQKWVAVRDLEYTDAEKVREVKTERHRKTYRAKVVFEEKVERERLIEALESLKGEIRQRTPMRVSHRRADRVRVRRLYDARLIHHTGRVAVVEFEAEAGLYIKELVSGDNGRTRPSLAEKVGVNARVDRLDVIAVSLEHHHHHH	soluble
MSLTYYFSGTIDRVIFENTSNFFKIILLEIDDTDSDFDDFEIIVTGTIADVIEGENYTFWGELTQHPKYGQQLKVERYQRAKPSSAGLIKYFSSQHFKGIGKKTAEKIIHLYGDDPIDNILEDPDKLESISGLSKANRENLVSKLRLNYGAEQILAKLAEYGLNNKTAVQIFERYKEESLTVITENPYQLVEDIQGIGFKMADKLAEQVGINSDAPQRFRAALVHTLLETSIDKGDTYIEAKELLEKSLFILEEVRQVELDPSQIAQELTQLISEDKVQNIGTKIFDNTLFYAESGIHKHLTRILDRPLEKEISSQDIQTEIKHIQAEFNINYDKAQKNAIQKAIQSKVFLLTGGPGTGKTTVINGIIKAYANLHQIDLQKSDRPIILAAPTGRAARRMNELTGLPSATIHRHLGLNGDSEYQALDDFLDCDLIIIDEFSMVDTWLANQLFSAIASNTQVIIVGDSDQLPSVGPGQILADLLKINRLPQVSLTKIFRQSEDSTIVTLANQIRQGRLPTDFTAKKADRSYFEAQSTHIPQMIQKIVSSALKSGIDAQEIQILAPMYRGQAGITHLNKLMQDLLNPLNNQLEFQFNDLHFRKGDKVLHLINDAQINVFNGDIGYITDLIPAKYTESKQDEMILDFDGTEINYPRNEWLKITLAYAMSIHKSQGSEFKVVILPVTRQSGRLLQRNLIYTAITRSKSKLVMLGEIAAFDNAIKNEGTKRKTYLIERFKKDECSGHHNTEKNKQGVKESAAILKEDFILTERNILTIDPMIGLSQADIDLFFKKEGHHHHHH	soluble
MNTGHHKVADTLIDFLHRQFPWVESKKIDFLSYCNELMEKMVSGAYLRWIRSHPASYHRVYKTFMYEESLRLEFVSFEPWLPYFEGKMKKMLEQERPDLIVCTHSFPSRILQQLKRKKVLAIPVVNVYTDFFMNSIWGKRFIDYHFVPHQEAKRELIVKHGIDERRIVVTGIPVHDTFMKAAALEHHHHHH	not soluble
MITRDFFLFLSKSGFLNKMARNWGSRVAAGKIIGGNDFNSSIPTIRQLNSQGLSVTVDHLGEFVNSAEVARERTEECIQTIATIADQELNSHVSLKMTSLGLDIDMDLVYENMTKILQTAEKHKIMVTIDMEDEVRCQKTLDIFKDFRKKYEHVSTVLQAYLYRTEKDIDDLDSLNPFLRLVKGAYKESEKVAFPEKSDVDENYKKIIRKQLLNGHYTAIATHDDKMIDFTKQLAKEHGIANDKFEFQMLYGMRSQTQLSLVKEGYNMRVYLPYGEDWYGYFMRRLAERPSNIAFAFKGMTKKLEHHHHHH	soluble
MLRVGPLTIGTLDDWAPSTGSTVSWRPSAVAHTKASQAPISDVPVSYMQAQHIRGYCEQKAKGLDYSRLMVVSCQQPGQCDIRAANYVINAHLRRHDTYRSWFQYNGNGQIIRRTIQDPADIEFVPVHHGELTLPQIREIVQNTPDPLQWGCFRFGIVQGCDHFTFFASVDHVHVDAMIVGVTLMEFHLMYAALVGGHAPLELPPAGSYDDFCRRQHTFSSTLTVESPQVRAWTKFAEGTNGSFPDFPLPLGDPSKPSDADIVTVMMLDEEQTAQFESVCTAAGARFIGGVLACCGLAEHELTGTTTYYGLTPRDTRRTPADAMTQGWFTGLIPITVPIAGSAFGDAARAAQTSFDSGVKLAEVPYDRVVELSSTLTMPRPNFPVVNFLDAGAAPLSVLLTAELTGTNIGVYSDGRYSYQLSIYVIRVEQGTAVAVMFPDNPIARESVARYLATLKSVFQRVAESGQQQNVA	not soluble
MSLRFGNRKLRQQQALQYELEKNKAELEEYREELVSHFARSAELLDTMAHDYRQLYQHMAKSSSSLLPEMSAESNPFRNRLAESEASNDQAPVQMPRDYSEGASGLLRSGAKRDEGHHHHHH	not soluble
MVFSGPASPGLTLAPLRRGGIDPCYRVDAAGAIWRTSLMPSGPVTARITRAATDAADCQAWGEGADEFIDRLPALLGVDDDASDFAPAEPTIAKARRQVPHLRLGRTGRMLEALIPAIIEQRVYGLDAWRAWRALVTKFGTPAPGPAPDGMRVVPSAEVWRRIPSWEFHRANVDPGRARTIVMCAQRADSLERLTHERAAVTLRSLPGVGEWTAAETMQRVFGDADALSAGDYHLATLVGQALTGEPVDDAGMVELLEPMRPHRHRAVRLLEASGMFVYRRRGARQAIPKLRTL	not soluble
MGSDKIHHHHHHVLSTANITMQFGPKPLFENISVKFGGGNRYGLIGANGCGKSTFMKILGGDLEPSSGNVMLEPNIRLGKLRQDQFAYEDVRVLDVVMMGHAEMWAAMTERDAIYANPDATDDDYMHAAELEAKFAEYDGYTAEARAGELLLGIGIAIENHNGPMSNVAPGWKLRVLLAQALFSKPDVLLLDEPTNNLDINSIRWLEDVLNQYNSTMIIISHDRHFLNQVCTHMADMDFGTLKVYPGNYDDYMLASTQARERQQNANAKAKERVADLQDFVRRFSANKSKARQATSRLKMIDKIKIEEFKPSSRQNPFIRFEYEKKLHNIAVVAEKISKKYERTIFNDFSISVQPGERIAIIGENGAGKTTLLRSLLGKLELDHGTVKWAENANIGYMPQDTYEEFPDDVTLMEWIDVYRKEGDDEQMVRGTLGRLLFNADDIRKSVKVLSGGEKGRMIWGKLMLGRHNVLLMDEPTNHMDMESIESLQIALDKFEGTLIFVSHDREFVSGLANRIIEVKTDGTLNDFGGNYEDFLLSQGVQ	not soluble
MTENVEYIRVLLKSSQAEVQMLREQNEFRDDLLKMFKVKLEVNALNNLPVRRNLSVEISNLETKKLKTEIAFLKEELGREGKKLTIANTVHEQLKKDLEAEKRNSMFLSELLTFYQNGHQPQLPAEDQFVDFLQTETRSVKEALKEKEEEVKRLLVDMEGKTFQNLTEKGRMEEEMNDAKREAQILRNEMKSLQKNMTAKENELLGYLRDASETHTEMQKDYKIQILELQRRNRILERHLDNIQ	not soluble
MGHHHHHHSHMYSEIQRERADIGGLMARPEYREWNPELIKPKKLLNPVKASRSHQELHRELLMNHRRGLGVDSKPELQRVLEHRRRNQLIKKKKEELEAKRLQCPFEQELLRRQQRLNQLEKPPEKEEDHAPEFIKVRENLRRIATLTSEEREL	not soluble
MERLEEARKRLEEARRVAVLTGAGISKPSGIPTFRDAEGLWKNFNPLDYATPEAYARDPEKVWAWYAWRIQKVREAKPNPAHYALVELERRILSRGGSFLLVTQNVDGLHALAGSQNLVELHGNLLRARCEACGKRFPLPEAFAPPPFCPACGHRARPDVVWFGEFLPEGAWERAERAFAEADFALVVGTSAEVEPAASLGRIAFASGAYLVEVNPEPTPLTPLAHLSLRTGAVEGMALLLPPSPEDQAEGHLS	soluble
